Results: patent US20030199671A1 (published 2003)
fluorescein = fluorescein label attached at the ε-amino group of the C-terminal lysine

Columns and labels:
[1] = biological target: T1, human IgG3 (human, UniProt P01860-1 1-377); assay: fluorescence anisotropy; PBS
T1 construct: Calbiochem; plasma IgG3 in anisotropy studies, myeloma-derived (cat. 400124) in batch/column studies; also called hIgG3
Experimental: (§1) Peptides were synthesized, fluorescein-labeled and HPLC purified as described above. Binding studies were performed using either a mixture of human plasma IgG isoforms (the Fc protein) or the individual human plasma IgG isoforms: IgG1, IgG2, IgG3, or IgG4.
(§2) Measurements were performed in 384-well microplates with 2 nM fluorescein-labeled peptide and a varied concentration of the IgG isoform target in a volume of 10 μl using a Tecan Polarion fluorescence polarization plate reader. The Fc binding buffer was 50 mM Tris-HCl, 200 mM NaCl, pH 8.0, 0.01% Tween 20. The IgG binding buffer was PBS with 0.01% Tween 20. The binding mixtures were equilibrated for 10 minutes in the microplate at 30° C. prior to performing the measurements.

[2] = biological target: T2, human IgG1 (human, UniProt P01857-1 1-330 = IgG part); assay: fluorescence anisotropy; pH 5.7, 0.01 M Tris-acetate
T2 construct: Calbiochem; human plasma IgG1 in anisotropy studies, myeloma-derived (cat. 400120) in batch/column studies; also called hIgG1
T2 sequence (P01857 other isoform, or with tags, fused parts or gaps): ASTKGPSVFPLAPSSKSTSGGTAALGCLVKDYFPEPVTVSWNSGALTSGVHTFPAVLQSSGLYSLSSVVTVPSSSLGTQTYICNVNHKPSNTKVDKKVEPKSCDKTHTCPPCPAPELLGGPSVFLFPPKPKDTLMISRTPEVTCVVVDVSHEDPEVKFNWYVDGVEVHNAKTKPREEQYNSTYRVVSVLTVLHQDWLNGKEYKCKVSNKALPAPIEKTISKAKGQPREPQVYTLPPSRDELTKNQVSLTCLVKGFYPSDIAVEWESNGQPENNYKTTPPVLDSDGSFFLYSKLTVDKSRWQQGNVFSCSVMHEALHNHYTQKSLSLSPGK
Experimental: (§3) All measurements were performed in 384 well microplates with 20 nM fluorescein-labeled peptide and various concentrations of the IgG isoform in a volume of between 10 and 20 μl using a Tecan Polarion fluorescence polarization plate reader. All binding buffers included 0.01% (v/v) Tween 20 to prevent peptide adsorption to the microplate. The binding mixture was equilibrated for 10 minutes in the microplate at 30° C. prior to performing the measurement.

[3] = biological target: T1, human IgG3; assay: as above
Experimental: as §3

[4] = biological target: T3, human IgG2 (human, UniProt P01859-1 1-326 = IgG part); assay: fluorescence anisotropy; pH 7.4 PBS (second value, unlabelled row)
T3 construct: Calbiochem; plasma IgG2 in anisotropy studies, myeloma-derived (cat. 400122) in batch/column studies; also called hIgG2
T3 sequence (P01859 other isoform, or with tags, fused parts or gaps): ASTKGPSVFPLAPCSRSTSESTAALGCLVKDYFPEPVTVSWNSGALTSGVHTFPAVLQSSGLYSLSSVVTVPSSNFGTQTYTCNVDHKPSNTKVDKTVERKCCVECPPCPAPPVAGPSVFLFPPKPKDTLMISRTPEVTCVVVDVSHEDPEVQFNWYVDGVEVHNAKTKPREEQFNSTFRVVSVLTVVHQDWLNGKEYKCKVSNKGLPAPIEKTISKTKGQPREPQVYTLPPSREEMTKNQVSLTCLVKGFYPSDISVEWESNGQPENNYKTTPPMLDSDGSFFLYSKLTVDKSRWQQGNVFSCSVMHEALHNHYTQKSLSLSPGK
Experimental: as §3

[5] = biological target: T2, human IgG1; assay: as above
Experimental: as §3

[6] = biological target: T3, human IgG2; assay: batch binding, immobilised ligand
Experimental: (§4) IgG targets were diluted into 10 mM phosphate buffer containing 150 mM NaCl and 0.01% Tween 20, pH 7.2 (PBST) or 50 mM Tris buffer containing, 150 mM NaCl and 0.01% Tween-20, pH 7.5 (TBST). Batch (static) binding and elution studies were conducted in a 96-well assay filterplate (Millipore MultiScreen-HV, with 0.45 μm Durapore membrane, product no. MAHVN4510). The target was allowed to incubate with the resin for 1-1.5 hours with shaking at room temperature. Unbound target was collected by centrifugation of samples from the assay plate directly into a low-UV absorbing 96-well collection plate (Costar, product no. 3635 or Greiner, product no. 655801). The unbound target was then quantitated by reading the absorbance at 280 nm (normalized to 1 cm pathlength, 1.4 mg/ml A280 extinction coefficient) of the collection plate on a microplate spectrophotometer (Molecular Devices Corp., SPECTRAmax PLUS) against a buffer blank.
(§5) The percentage bound target was determined by subtracting the mass determined as unbound from the corresponding condition's control values (control non-filtered added directly to the collection plate and/or the negative control). The assay plate was washed (3×) with 200 μl of binding buffer by vacuum filtration followed by addition of 100 μl of various elution conditions (e.g.: 0.1 M sodium bicarbonate buffer, pH 8.5 and/or 0.1 M sodium citrate buffer, pH 4.0). After a 30-60 minute incubation with shaking at room temperature, the eluted target was collected by centrifugation of the assay plate into another collection plate and quantitated in a similar manner. Percent elution of total load was then determined to characterize elution recovery efficiency under various conditions.

[7] = biological target: T2, human IgG1; assay: batch binding, immobilised ligand
Experimental: as §4, §5

[8] = biological target: T1, human IgG3; assay: batch binding, immobilised ligand
Experimental: as §4, §5

[9] = biological target: T4, human IgG4 (human, UniProt P01861-1 1-327 = IgG part); assay: batch binding, immobilised ligand
T4 construct: Calbiochem; plasma IgG4 in anisotropy studies, myeloma-derived (cat. 400126) in batch/column studies; also called hIgG4
T4 sequence (P01861 other isoform, or with tags, fused parts or gaps): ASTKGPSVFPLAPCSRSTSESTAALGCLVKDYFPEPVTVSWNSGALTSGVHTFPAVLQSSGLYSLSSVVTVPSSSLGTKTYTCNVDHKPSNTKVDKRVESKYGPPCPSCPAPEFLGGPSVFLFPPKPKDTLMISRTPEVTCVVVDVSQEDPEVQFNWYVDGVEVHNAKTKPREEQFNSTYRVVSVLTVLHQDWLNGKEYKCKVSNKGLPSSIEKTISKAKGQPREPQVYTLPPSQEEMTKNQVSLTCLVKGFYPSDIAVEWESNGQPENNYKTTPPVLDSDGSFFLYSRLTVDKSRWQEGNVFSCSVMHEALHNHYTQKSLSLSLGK
Experimental: as §4, §5

[10] = biological target: T5, Human IgG Fc fragment isolated from plasma (human); assay: fluorescence anisotropy; pH 8.0, 0.05 M Tris-HCl, 0.2 M NaCl
T5 construct: domain: Fc fragment; also called human Fc; Fc protein
Experimental: as §3

[11] = biological target: T3, human IgG2; assay: fluorescence anisotropy; pH 7.4 PBS
Experimental: as §3

[12] = biological target: T2, human IgG1; assay: fluorescence anisotropy; pH 7.4 PBS
Experimental: as §3

[13] = biological target: T1, human IgG3; assay: fluorescence anisotropy; pH 7.4 PBS
Experimental: as §3

[14] = biological target: T3, human IgG2; assay: fluorescence anisotropy; pH 7.4, 0.01 M Tris-HCl
Experimental: as §3

[15] = biological target: T2, human IgG1; assay: fluorescence anisotropy; pH 7.4, 0.01 M Tris-HCl
Experimental: as §3

[16] = biological target: T1, human IgG3; assay: fluorescence anisotropy; pH 7.4, 0.01 M Tris-HCl
Experimental: as §3

[17] = biological target: T4, human IgG4; assay: fluorescence anisotropy; pH 7.4, 0.01 M Tris-HCl
Experimental: as §3

[18] = biological target: T3, human IgG2; assay: fluorescence anisotropy; PBS
Experimental: as §1, §2

[19] = biological target: T2, human IgG1; assay: fluorescence anisotropy; PBS
Experimental: as §1, §2

[20] = biological target: T4, human IgG4; assay: fluorescence anisotropy; PBS
Experimental: as §1, §2

[21] = biological target: T5, Human IgG Fc fragment isolated from …; assay: fluorescence anisotropy; 50 mM Tris-HCl, 200 mM NaCl, pH 8.0
Experimental: as §1, §2

[22] = biological target: T3, human IgG2; assay: fluorescence anisotropy; pH 9.3, 0.01 M sodium bicarbonate
[23] = biological target: T2, human IgG1; assay: as above
[24] = biological target: T2, human IgG1; assay: fluorescence anisotropy; pH 9.3, 0.2 M NaCl
Experimental: as §3

T1 sequence (P01860 other isoform, or with tags, fused parts or gaps): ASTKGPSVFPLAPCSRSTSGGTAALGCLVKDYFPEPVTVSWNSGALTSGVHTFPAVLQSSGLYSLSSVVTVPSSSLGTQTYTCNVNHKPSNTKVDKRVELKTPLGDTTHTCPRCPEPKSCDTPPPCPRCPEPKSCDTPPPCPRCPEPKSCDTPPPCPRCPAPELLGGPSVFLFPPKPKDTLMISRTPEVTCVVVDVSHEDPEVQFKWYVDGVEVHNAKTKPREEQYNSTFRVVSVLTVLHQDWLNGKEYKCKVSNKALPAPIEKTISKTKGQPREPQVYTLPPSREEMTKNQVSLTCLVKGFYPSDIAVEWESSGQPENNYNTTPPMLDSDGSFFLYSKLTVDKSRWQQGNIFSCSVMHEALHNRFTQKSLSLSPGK

Row | Kd [2] | Kd [3] | Kd [5] | Kd [10] | Kd [11] | Kd [12] | Kd [13] | Kd [14] | Kd [17] | Binder | also measured
1 |  |  |  |  |  |  |  |  |  | Ac-AGKYWCSFWGLQCKTGTPGPEGGGK(fluorescein)-NH2 (not fully specified (bridges); printed as Ac-AGKYWCSFWGLQCKTGTPGPEGGGK-NH2; cysteine pairing not given here, also called fluoresceinated DX250) [DX300] | Kd [1]: 4100 nM
2 | 100 nM | 60 nM | 2900 nM | 5100 nM | 3600 nM | 1900 nM | 2700 nM | 3400 nM | 3200 nM | Ac-GDDDHCYWFREWFNSECPHGEPGPEGGGK-NH2 (not fully specified (bridges); printed as Ac-GDDDHCYWFREWFNSECPHGEPGPEGGGK-NH2; cysteine pairing not given here; also: fluorescein-labelled form in anisotropy assays, place not given here, Fluorescein-labelled in anisotropy assays; immobilised in batch/column assays) [DX252] | Kd [4]: 3000 nM; bdg % (of Total Load) [6]: 37%; bdg % (of Total Load) [7]: 37%; bdg % (of Total Load) [8]: 44%; bdg % (of Total Load) [9]: 14%; Kd [15]: 2100 nM; Kd [16]: 2300 nM
3 |  |  |  |  |  |  |  |  |  | Ac-GDRRACSRDWSGALVWCAGHEPGPEGGGK(fluorescein)-NH2 (not fully specified (bridges); printed as Ac-GDRRACSRDWSGALVWCAGHEPGPEGGGK-NH2; cysteine pairing not given here, also called fluoresceinated DX253) [DX301] | Kd [18]: 2300 nM; Kd [19]: 3600 nM; Kd [20]: 9700 nM; Kd [21]: 6800 nM
4 | 90 nM | 300 nM | 400 nM | 1600 nM | 1100 nM | 140 nM | 3000 nM | 2000 nM | 2900 nM | Ac-AGYYWCNYWGLCPDQGTPGPEGGGK-NH2 (not fully specified (bridges); printed as Ac-AGYYWCNYWGLCPDQGTPGPEGGGK-NH2; cysteine pairing not given here; also: fluorescein-labelled form in anisotropy assays, place not given here, Fluorescein-labelled in anisotropy assays; immobilised in batch assays) [DX254] | Kd [22]: 2000 nM; Kd [23]: 400 nM; Kd [24]: 600 nM
